Patent US11278600B2, “Human alpha-galactosidase variants” (Codexis, Inc., priority 2014, dated 2022)
Substitutions are numbered along the chain they refer to.

B1: 496 (protein)
chain: LDNGLARTPTMGWLHWERFMCNLDCQEEPDSCISEKLFMEMAERMVSEGWKDAGYEYLCIDDCWMAPQRDSEGRLQADPQRFPHGIRQLANYVHSKGLKLGIYADVGNKTCAGFPGSFGYYDIDAQTFADWGVDLLKFDGCYCDSLENLADGYKHMSLALNRTGRSIVYSCEWPLYMWPFQKPNYTEIRQYCNHWRNFADIDDSWKSIKSILDWTSFNQERIVDVAGPGGWNDPDMLVIGNFGLSWNQQVTQMALWAIMAAPLFMSNDLRHISPQAKALLQDKDVIAINQDPLGKQGYQLRQGDNFEVWERPLSGLAWAVAMINRQEIGGPRSYTIAVASLGKGVACNPACFITQLLPVKRKLGFYEWTSRLRSHINPTGTVLLQLENTVQMSLKDLL
modifications: Synthetic Polypeptide sequence of Variant No. 496 of mature Human GLA
B2: 497 (protein)
chain: B1 chain with V390K
modifications: Synthetic Polypeptide sequence of Variant No. 497 of mature Human GLA
B3: 371 (protein)
chain: LDNGLARTPTMGWLHWERFMCNLDCQEEPDSCISEKLFMEMAEWMVSEGWKDAGYEYLCIDDCWMAPQRDSEGRLQADPQRFPHGIRQLANYVHSKGLKLGIYADVGNKTCAGFPGSFGYYDIDAQTFADWGVDLLKFDGCYCDSLENLADGYKHMSLALNRTGRSIVYSCEWPLYMWPFQKPNYTEIRQYCNHWRNFADIDDSWKSIKSILDWTSRNQERIVDVAGPGGWNDPDMLVIGNFGLSWDQQVTQMALWAIMAAPLFMSNDLRHISPQAKALLQDKDVIAINQDPLGKQGYQLRKGDNFEVWERPLSGDAWAVAIINRQEIGGPRSYTIPVASLGKGVACNPACFITQLLPVKRQLGFYNWTSRLKSHINPTGTVLLQLENTMQMSLKDLL
modifications: Synthetic Polypeptide sequence of Variant No. 371 of mature Human GLA
B4: 498 (protein)
chain: B1 chain with V390M, M392I
modifications: Synthetic Polypeptide sequence of Variant No. 498 of mature Human GLA
B5: 499 (protein)
chain: B1 chain with T389L, V390M
modifications: Synthetic Polypeptide sequence of Variant No. 499 of mature Human GLA
B6: 500 (protein)
chain: B1 chain with V390A
modifications: Synthetic Polypeptide sequence of Variant No. 500 of mature Human GLA
B7: 501 (protein)
chain: B1 chain with V390M, M392G
modifications: Synthetic Polypeptide sequence of Variant No. 501 of mature Human GLA
B8: 502 (protein)
chain: B1 chain with L386S, V390M
modifications: Synthetic Polypeptide sequence of Variant No. 502 of mature Human GLA
B9: 503 (protein)
chain: B1 chain with Q385C, V390M
modifications: Synthetic Polypeptide sequence of Variant No. 503 of mature Human GLA
B10: 504 (protein)
chain: B1 chain with V390S
modifications: Synthetic Polypeptide sequence of Variant No. 504 of mature Human GLA
B11: 505 (protein)
chain: B1 chain with V390M, M392N
modifications: Synthetic Polypeptide sequence of Variant No. 505 of mature Human GLA
B12: 506 (protein)
chain: B1 chain with Q385W, V390M
modifications: Synthetic Polypeptide sequence of Variant No. 506 of mature Human GLA
B13: 507 (protein)
chain: B1 chain with V390M, M392T
modifications: Synthetic Polypeptide sequence of Variant No. 507 of mature Human GLA

Experiment: HTP-analysis of supernatants pretreated with base (MUGal hydrolysis)
Type: biochemical
Settings: activity of the variant/activity of Rd4BB (SEQ ID NO: 15); challenge at pH 9.65
How it was run: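 GLA variants secreted from yeast INVSc1; culture supernatants pre-incubated with McIlvaine buffer pH 7.0–8.2 or 200 mM bicarbonate pH 9.1–9.7 at 37° C. for 1–18 h. Residual activity: MUGal (4 mM stock) hydrolysis at pH 4.3–4.8, 37° C., 30–180 min, carbonate quench; fluorescence Ex 355/Em 448 nm.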

Q: Which “Relative Activity of GLA Variants After Challenge at pH 9.65” value (shortened to “Relative Activity … at pH 9.65”) does the source give for B1 here?
A: + (0.5 to 1.5 relative activity over Rd4BB (SEQ ID NO: 15))

Q: For B2, which “Relative Activity … at pH 9.65” value is on record?
A: + (0.5 to 1.5 relative activity over Rd4BB (SEQ ID NO: 15))

Q: With B3 as the molecule, how does the “Relative Activity … at pH 9.65” value read?
A: + (0.5 to 1.5 relative activity over Rd4BB (SEQ ID NO: 15))

Q: Which “Relative Activity … at pH 9.65” value does the source give for B4 here?
A: + (0.5 to 1.5 relative activity over Rd4BB (SEQ ID NO: 15))

Q: For B5, which “Relative Activity … at pH 9.65” value is on record?
A: + (0.5 to 1.5 relative activity over Rd4BB (SEQ ID NO: 15))

Q: Which “Relative Activity … at pH 9.65” value does the source give for B6 here?
A: + (0.5 to 1.5 relative activity over Rd4BB (SEQ ID NO: 15))

Q: Which “Relative Activity … at pH 9.65” value does the source give for B7 here?
A: + (0.5 to 1.5 relative activity over Rd4BB (SEQ ID NO: 15))

Q: For B8, which “Relative Activity … at pH 9.65” value is on record?
A: − (<0.5 relative activity over Rd4BB (SEQ ID NO: 15))

Q: With B9 as the molecule, how does the “Relative Activity … at pH 9.65” value read?
A: + (0.5 to 1.5 relative activity over Rd4BB (SEQ ID NO: 15))

Q: For B10, which “Relative Activity … at pH 9.65” value is on record?
A: + (0.5 to 1.5 relative activity over Rd4BB (SEQ ID NO: 15))

Q: With B11 as the molecule, how does the “Relative Activity … at pH 9.65” value read?
A: + (0.5 to 1.5 relative activity over Rd4BB (SEQ ID NO: 15))

Q: Which “Relative Activity … at pH 9.65” value does the source give for B12 here?
A: − (<0.5 relative activity over Rd4BB (SEQ ID NO: 15))

Q: For B13, which “Relative Activity … at pH 9.65” value is on record?
A: + (0.5 to 1.5 relative activity over Rd4BB (SEQ ID NO: 15))

Experiment: HTP-analysis of supernatants pretreated with acid (MUGal hydrolysis)
Type: biochemical
Settings: activity of the variant/activity of Rd4BB (SEQ ID NO: 15); challenge at pH 3.7
How it was run: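 Supernatants from INVSc1 yeast secreting GLA variants were challenged at 37° C. for 1-3 h in McIlvaine buffer at pH 3.3-4.3. Residual activity was then measured on 4 mM MUGal substrate stock at pH 4.8 with citrate buffer pH 4.3, over 30-180 min at 37° C. Reactions were quenched with sodium carbonate and read by fluorescence (Ex 355/Em 448 nm).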

Q: For B1, which “Relative Activity of GLA Variants After Challenge at pH 3.7” value (from here on “Relative Activity … at pH 3.7”) is on record?
A: + (0.5 to 1.5 relative activity over Rd4BB (SEQ ID NO: 15))

Q: With B2 as the molecule, how does the “Relative Activity … at pH 3.7” value read?
A: ++ (>1.5 to 2.5 relative activity over Rd4BB (SEQ ID NO: 15))

Q: With B3 as the molecule, how does the “Relative Activity … at pH 3.7” value read?
A: − (<0.5 relative activity over Rd4BB (SEQ ID NO: 15))

Q: For B4, which “Relative Activity … at pH 3.7” value is on record?
A: + (0.5 to 1.5 relative activity over Rd4BB (SEQ ID NO: 15))

Q: Which “Relative Activity … at pH 3.7” value does the source give for B5 here?
A: + (0.5 to 1.5 relative activity over Rd4BB (SEQ ID NO: 15))

Q: For B6, which “Relative Activity … at pH 3.7” value is on record?
A: + (0.5 to 1.5 relative activity over Rd4BB (SEQ ID NO: 15))

Q: For B7, which “Relative Activity … at pH 3.7” value is on record?
A: ++ (>1.5 to 2.5 relative activity over Rd4BB (SEQ ID NO: 15))

Q: With B8 as the molecule, how does the “Relative Activity … at pH 3.7” value read?
A: + (0.5 to 1.5 relative activity over Rd4BB (SEQ ID NO: 15))

Q: With B9 as the molecule, how does the “Relative Activity … at pH 3.7” value read?
A: + (0.5 to 1.5 relative activity over Rd4BB (SEQ ID NO: 15))

Q: Which “Relative Activity … at pH 3.7” value does the source give for B10 here?
A: + (0.5 to 1.5 relative activity over Rd4BB (SEQ ID NO: 15))

Q: For B11, which “Relative Activity … at pH 3.7” value is on record?
A: + (0.5 to 1.5 relative activity over Rd4BB (SEQ ID NO: 15))

Q: For B12, which “Relative Activity … at pH 3.7” value is on record?
A: + (0.5 to 1.5 relative activity over Rd4BB (SEQ ID NO: 15))

Q: For B13, which “Relative Activity … at pH 3.7” value is on record?
A: ++ (>1.5 to 2.5 relative activity over Rd4BB (SEQ ID NO: 15))

Experiment: HTP-analysis of yeast culture supernatants, no challenge (MUGal hydrolysis)
Type: biochemical
Settings: activity of the variant/activity of Rd4BB (SEQ ID NO: 15)
How it was run: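 GLA variants were expressed in INVSc1 yeast grown in SD-Ura broth with glucose at 30° C., and culture supernatants were collected after 66-84 h. Supernatant was mixed with McIlvaine buffer pH 4.8 and MUGal (2 mM stock) in 50 mM citrate, 200 mM KCl, pH 4.6, incubated at 37° C. for 30-180 minutes, then quenched with sodium carbonate.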

Q: With B1 as the molecule, how does the “Relative Activity of GLA Variants After No Challenge (NC)” value read?
A: + (0.5 to 1.5 relative activity over Rd4BB (SEQ ID NO: 15))

Q: With B2 as the molecule, how does the “Relative Activity of GLA Variants After No Challenge (NC)” value read?
A: + (0.5 to 1.5 relative activity over Rd4BB (SEQ ID NO: 15))

Q: For B3, which “Relative Activity of GLA Variants After No Challenge (NC)” value is on record?
A: + (0.5 to 1.5 relative activity over Rd4BB (SEQ ID NO: 15))

Q: For B4, which “Relative Activity of GLA Variants After No Challenge (NC)” value is on record?
A: + (0.5 to 1.5 relative activity over Rd4BB (SEQ ID NO: 15))

Q: Which “Relative Activity of GLA Variants After No Challenge (NC)” value does the source give for B5 here?
A: + (0.5 to 1.5 relative activity over Rd4BB (SEQ ID NO: 15))

Q: Which “Relative Activity of GLA Variants After No Challenge (NC)” value does the source give for B6 here?
A: + (0.5 to 1.5 relative activity over Rd4BB (SEQ ID NO: 15))

Q: With B7 as the molecule, how does the “Relative Activity of GLA Variants After No Challenge (NC)” value read?
A: + (0.5 to 1.5 relative activity over Rd4BB (SEQ ID NO: 15))

Q: With B8 as the molecule, how does the “Relative Activity of GLA Variants After No Challenge (NC)” value read?
A: − (<0.5 relative activity over Rd4BB (SEQ ID NO: 15))

Q: For B9, which “Relative Activity of GLA Variants After No Challenge (NC)” value is on record?
A: + (0.5 to 1.5 relative activity over Rd4BB (SEQ ID NO: 15))

Q: For B10, which “Relative Activity of GLA Variants After No Challenge (NC)” value is on record?
A: + (0.5 to 1.5 relative activity over Rd4BB (SEQ ID NO: 15))

Q: Which “Relative Activity of GLA Variants After No Challenge (NC)” value does the source give for B11 here?
A: + (0.5 to 1.5 relative activity over Rd4BB (SEQ ID NO: 15))

Q: With B12 as the molecule, how does the “Relative Activity of GLA Variants After No Challenge (NC)” value read?
A: + (0.5 to 1.5 relative activity over Rd4BB (SEQ ID NO: 15))

Q: With B13 as the molecule, how does the “Relative Activity of GLA Variants After No Challenge (NC)” value read?
A: + (0.5 to 1.5 relative activity over Rd4BB (SEQ ID NO: 15))
